Source: patent US20220056091A1

Each substance was assayed against His-tagged human IL-18BP (human) (UniProt O95998) (assay: alphaLISA of free IL-18BP).
Chain of His-tagged human IL-18BP (human) (O95998 31-194): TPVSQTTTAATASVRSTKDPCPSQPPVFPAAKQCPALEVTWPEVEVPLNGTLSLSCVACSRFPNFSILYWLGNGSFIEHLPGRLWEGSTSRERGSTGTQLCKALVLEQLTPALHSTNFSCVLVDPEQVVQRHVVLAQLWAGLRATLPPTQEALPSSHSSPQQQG

Chain of IL-18 polypeptide of SEQ ID NO: 1 (native sequence, human IL-18 37-193) (Q14116 37-193): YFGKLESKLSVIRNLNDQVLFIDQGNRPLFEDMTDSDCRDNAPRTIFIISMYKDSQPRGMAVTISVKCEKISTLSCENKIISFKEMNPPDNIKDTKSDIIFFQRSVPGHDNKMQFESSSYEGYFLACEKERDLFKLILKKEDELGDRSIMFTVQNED

Substance	Kd
Modified IL-18 polypeptide of SEQ ID NO: 22 (E06K, K53A, C38S, C68S, C76S, C127S, K70C) (from UniProt Q14116 37-193) (ligand)	446 nM
Modified IL-18 polypeptide of SEQ ID NO: 9 (K53A, S55A) (from UniProt Q14116 37-193) (ligand)	500 nM
Modified IL-18 polypeptide of SEQ ID NO: 23 (K53A, T63A, C38S, C68S, C76S, C127S, K70C) (from UniProt Q14116 37-193) (ligand)	913 nM
Modified IL-18 polypeptide of SEQ ID NO: 18 (E06K, K53A, T63A) (from UniProt Q14116 37-193) (ligand)	340 nM
Modified IL-18 polypeptide of SEQ ID NO: 70 (E6K, K53A, C38S, C76S, C127S) (from UniProt Q14116 37-193) (ligand)	436 nM
Modified IL-18 polypeptide of SEQ ID NO: 4 (K53A) (from UniProt Q14116 37-193) (ligand)	514 nM
Modified IL-18 polypeptide of SEQ ID NO: 3 (Y01G, F02A, E06K, M51G, K53A, D54A, S55A, T63A) (from UniProt Q14116 37-193) (ligand)	969 nM
Modified IL-18 polypeptide of SEQ ID NO: 20 (E06K, T63A) (from UniProt Q14116 37-193) (ligand)	0.83 nM
Modified IL-18 polypeptide of SEQ ID NO: 7 (E06K, K53A) (from UniProt Q14116 37-193) (ligand)	130 nM

More lines, in order of falling Kd, values ahead:

Kd	Substance
822 nM	Modified IL-18 polypeptide of SEQ ID NO: 10 (E06K, K53A, S55A, T63A) (from UniProt Q14116 37-193) (ligand)
198 nM	Modified IL-18 polypeptide of SEQ ID NO: 21 (K53A, T63A) (from UniProt Q14116 37-193) (ligand)
59.1 nM	Modified IL-18 polypeptide of SEQ ID NO: 71 with a 30 kDa PEG attached at residue C68 (E6K, C38S, K53A, C68-30kDPEG) (from UniProt Q14116 37-193) (ligand)
50.2 nM	Modified IL-18 polypeptide of SEQ ID NO: 71 (E6K, C38S, K53A) (from UniProt Q14116 37-193) (ligand)
12.3 nM	Modified IL-18 polypeptide of SEQ ID NO: 8 (E06K, S55A) (from UniProt Q14116 37-193) (ligand)
10.7 nM	Modified IL-18 polypeptide of SEQ ID NO: 5 (S55A) (from UniProt Q14116 37-193) (ligand)
2.59 nM	Modified IL-18 polypeptide of SEQ ID NO: 19 (T63A) (from UniProt Q14116 37-193) (ligand)
0.67 nM	IL-18 polypeptide of SEQ ID NO: 1 (native sequence, human IL-18 37-193) (from UniProt Q14116 37-193) (ligand)
0.21 nM	Modified IL-18 polypeptide of SEQ ID NO: 16 (C38S, C68S, C76S, C127S, K70C) (from UniProt Q14116 37-193) (ligand)
0.13 nM	Modified IL-18 polypeptide of SEQ ID NO: 6 (E06K) (from UniProt Q14116 37-193) (ligand)
0.03 nM	Modified IL-18 polypeptide of SEQ ID NO: 15 (C38S, C68S, C76S, C127S) (from UniProt Q14116 37-193) (ligand)
